From US8106154B2, “Nitrogen-based linkers for attaching modifying groups to polypeptides and other macromolecules” (Affymax, Inc., priority 2007, dated 2012)

Experiments:
Type in all cases: cell-based
[1] = system: primary human bone marrow pluripotent stem cells
Method: EPO-R signaling stimulates the differentiation of bone marrow stem cells into proliferating red blood cell presursors. This assay measured the ability of test peptides to stimulate the proliferation and differentiation of red blood cell precursors from primary human bone marrow pluripotent stem cells. Test peptides were added to cultures of human bone marrow cells, and the cells are incubated for 16 days. Thereafter, the number of red blood cell colonies were counted. The concentration of test peptide at which the number of formed colonies is 90% of maximum, relative to that observed with EPO, was recorded as the EC90.

[2] = molecular target: T1, human EPO-R (Homo sapiens, UniProt P19235); assay: Reporter assay (fos promoter-driven luciferase); settings: murine pre-B-cell line expressing human EPO-R with luciferase reporter; 4 hr incubation; half-maximal relative to EPO
T1 construct: expressed in transfected cells; host or cells: murine pre-B-cell line
T1 sequence (P19235 25-508): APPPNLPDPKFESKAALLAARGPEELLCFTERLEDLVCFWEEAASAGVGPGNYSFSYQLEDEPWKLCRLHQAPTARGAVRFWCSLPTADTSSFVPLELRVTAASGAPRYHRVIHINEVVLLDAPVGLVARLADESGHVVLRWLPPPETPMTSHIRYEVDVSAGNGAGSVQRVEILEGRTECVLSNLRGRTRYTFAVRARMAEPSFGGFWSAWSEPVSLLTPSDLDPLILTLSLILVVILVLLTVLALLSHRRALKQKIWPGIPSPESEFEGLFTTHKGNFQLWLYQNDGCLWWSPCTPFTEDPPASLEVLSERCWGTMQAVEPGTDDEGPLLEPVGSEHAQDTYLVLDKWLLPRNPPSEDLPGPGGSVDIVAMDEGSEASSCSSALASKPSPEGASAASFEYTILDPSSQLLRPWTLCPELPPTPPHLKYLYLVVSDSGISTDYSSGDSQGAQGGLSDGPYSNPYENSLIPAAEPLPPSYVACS
Excerpt: This assay was based upon a murine pre-B-cell line transfected to express human EPO-R and further transfected with a fos promoter-driven luciferase reporter gene construct. Upon exposure to EPO or another EPO-R agonist, such cells respond by synthesizing luciferase. Luciferase causes the emission of light upon addition of its substrate luciferin. Thus, the level of EPO-R activation in such cells may be quantitated via measurement of luciferase activity.
The activity of a test peptide was measured by adding serial dilutions of the test peptide to cells, which were then incubated for 4 hr. After incubation, luciferin substrate was added to the cells, and light emission was measured. The concentration of test peptide that results in a half-maximal emission of light, relative to that observed with EPO, was recorded as the EC50.

[3] = molecular target: T1, human EPO-R; assay: Proliferation assay (MTT); settings: murine pre-B-cell line expressing human EPO-R, 48 hours incubation, half-maximal relative to EPO
Method: This assay was based upon a murine pre-B-cell line transfected to express human EPO-R. Proliferation of this cell line is dependent on EPO-R activation. The degree of cell proliferation was quantitated using MTT, where the signal in the MTT assay is proportional to the number of viable cells. The activity of a test peptide was measured by adding serial dilutions of the test peptide to cells, which were then incubated for 48 hours. After incubation, MTT was added to the cells, and absorbance was measured. The concentration of test peptide that results in a half-maximal absorbance, relative to that observed with EPO, was recorded as the EC50.

Row | EC90 [1] [nM] | Molecule | EC50 [2] [nM] | EC50 [3] [nM]
1 | 0.026 | CC[C@H](C)[C@@H]1NC(=O)[C@@H]2CCCN2C(=O)CNC(=O)[C@H](CCSC)NC(=O)[C@H](Cc2c[nH]cn2)NC(=O)[C@@H](NC(=O)[C@H](C)NC(=O)[C@H](Cc2ccc(O)cc2)NC(=O)[C@H](CC(C)C)NC(=O)CNC(=O)CNC(C)=O)CSSC[C@@H](C(=O)N[C@@H](CCC(N)=O)C(=O)N2CCC[C@H]2C(=O)N[C@@H](CC(C)C)C(=O)N[C@@H](CCCNC(=N)N)C(=O)N(C)CC(=O)N[C@@H](CCCCNC(=O)CN(CC(=O)NCCCC[C@H](NC(=O)CN(C)C(=O)[C@H](CCCNC(=N)N)NC(=O)[C@H](CC(C)C)NC(=O)[C@@H]2CCCN2C(=O)[C@H](CCC(N)=O)NC(=O)[C@@H]2CSSC[C@H](NC(=O)[C@H](C)NC(=O)[C@H](Cc3ccc(O)cc3)NC(=O)[C@H](CC(C)C)NC(=O)CNC(=O)CNC(C)=O)C(=O)N[C@@H](Cc3c[nH]cn3)C(=O)N[C@@H](CCSC)C(=O)NCC(=O)N3CCC[C@H]3C(=O)N[C@@H]([C@@H](C)CC)C(=O)N[C@@H]([C@@H](C)O)C(=O)N[C@@H](Cc3cccc4ccccc34)C(=O)N[C@@H](C(C)C)C(=O)N2)C(N)=O)C(=O)CCCC(=O)N(CCN)CCN)C(N)=O)NC(=O)[C@H](C(C)C)NC(=O)[C@H](Cc2cccc3ccccc23)NC(=O)[C@H]([C@@H](C)O)NC1=O [Example 8 peptide (non-PEGylated)] |  | 
2 |  | Compound V: As Example 10 but peptide monomer Ac-GGLYACHYGPIT(Nal)VCQPLR(MeG)K, SEQ ID NO: 23 (GGLYACHYGPITXVCQPLRXK; not fully specified; conjugate chemistry not built) | 0.69 | 0.44
